Experiment: soluble on expression in E. coli; label from the status in PepcDB or PDB records

| Sequence | soluble on expression in E. coli |
| --- | --- |
| MQNLSSTQREILLALVDLYNRYKRMIKSKEVADVIGKDEGTVRNIILSLKVLGLIESKPGPNGGYVPTLKAYESIKNPIITPVFDQISLYKDGLETDIKISNIELLDITNPSGNKVLLRVNGDLRKLKVGDSIKIGPIPYTRLVIEGVVIHIDDTRKELIADVTRMISIPKVQIKSLISKKLVALKPDMTLKEASQIFYKEGIRGAPVLDNEGKTLGILTTADIIKAFFEGKYDAKVSEYMKSNVISIRDEDDILTAIKKMLIYNVGRLLVYNQDQKVIGIVTRTDILKTIAGLEELITP | soluble |
| MSLKLVRKFARDIEVDELAICIPLEYKSACLIYELSRYTNVYAAKLDDFSTKPEVVSWLKEKGVEVKMKRDVVNAEYFLDCAAVLSRVAVKSGKERLKVVELTKTGEEYLRKMDVRMKAISLDSSTLKGTGENTHGTAFGLLDALLRLNVFLPGKKALILGFGRVGRGCARLLKSVGCDVAVWDNDETRQIEALYEGFRVEKDFTAEVVVTCTGVKGVLGKEELEEISDGSIILNMGAEMEIEPAGELIKDYGLVKEYEIAGKRYFLVADGYAANLALGSGTPIEVMDRTFSAAILALNHLSRSDFDGIIPLPHHIESTILEAIMMYEGHHHHHH | not soluble |
| MRKTLIALMFAAALPTVAMAMPEGHGPMGPMDGPRHSEHMRGKGPFSQLDLSREQRQQIGKLMGEQMHDRKAVVEKYLEKLSPADQKAMKDELTAKHQKTQADIRALLKPEQQKEFDTIVKKQEERRAEWAEFKAWKAQQPQKAQLEHHHHHH | soluble |
| MTLETAFMLPVQDAQHSFRRLLKAMSEPGVIVALHQLKRGWQPLNIATTSVLLTLADNDTPVWLSTPLNNDIVNQSLRFHTNAPLVSQPEQATFAVTDEAISSEQLNALSTGTAVAPEAGATLILQVASLSGGRMLRLTGAGIAEERMIAPQLPECILHELTERPHPFPLGIDLILTCGERLLAIPRTTHVEVC | soluble |
| MSLENGYTPKLMYERLSKRLGSLFTFFSEPAFENLLPPPPPEQYRRPLTLVVTLDDFLIHSNWDTQHGWRTGKRPGLDYFLGYLSQYYEIVVFSSNLQMYSDKTVNKLDPYHAYISYALFREACRYKDGKLIKDLSLLNRDLGKTVMIDVDEDSAALQPENSIIVKKWEGQPDEYLISLIPFLEYLATQPVKDVRPILNSYKDKSNEGHHHHHH | soluble |
| MSLKDVSLSSFDAHDLDLDKFPEVVRDRLTQFLDAQELTIADIGAPVTDAVAHLRSFVLNGGKRIRPLYAWAGFLAAQGHKNSSEKLESVLDAAASLEFIQACALIHDDIIDSSDTRRGAPTVHRAVEADHRANNFEGDPEHFGVSVSILAGDMALVWAEDMLQDSGLSAEALARTRDAWRGMRTEVIGGQLLDIYLESHANESVELADSVNRFKTAAYTIARPLHLGASIAGGSPQLIDALLHYGHDIGIAFQLRDDLLGVFGDPAITGKPAGDDIREGKRTVLLALALQRADKQSPEAATAIRAGVGKVTSPEDIAVITEHIRATGAEEEVEQRISQLTESGLAHLDDVDIPDEVRAQLRALAIRSTERREGHHHHHH | soluble |
| MVGYAEPVLIERQSVVAAPAEQVWQRVVTPEGINDELRPWMTMSVPRGAKGMTVDTVPIGAPIGRAWLRLFGVLPFDYDRLSIAELEPGRRFREDSTMLSMRQWQHERTVTPEGDTKTIVRDRITFQTRAGLRFAAPLIAAGLRALFGHRHRRLQRHFAQGLEHHHHHH | soluble |
| MKLTLKNLSMAIMMSTIVMGSSAMAADSNEKIVIAHRGASGYLPEHTLPAKAMAYAQGADYLEQDLVMTKDDNLVVLHDHYLDRVTDVADRFPDRARKDGRYYAIDFTLDEIKSLKFTEGFDIENGKKVQTYPGRFPMGKSDFRVHTFEEEIEFVQGLNHSTGKNIGIYPEIKAPWFHHQEGKDIAAKTLEVLKKYGYTGKDDKVYLQCFDADELKRIKNELEPKMGMELNLVQLIAYTDWNETQQKQPDGSWVNYNYDWMFKPGAMKQVAEYADGIGPDYHMLIEETSQPGNIKLTGMVQDAQQNKLVVHPYTVRSDKLPEYTPDVNQLYDALYNKAGVNGLFTDFPDKAVKFLNKE | soluble |
| MGSDKIHHHHHHMKRVISLIDMDCFYAQVEQRDNPSLWGQPVIVVQHSRQGIEGGILAVSYEARPFGVKRGMTVAEAKLKCPQISICHVPIGEYVDKADIQKYRDASAEVFRVLNNYDSQIIIEKASVDEAFLDLSAYTNQKLQELRENEGLEEFLQAAITYLPTTHLATGEDVKENEHLREDVLLEYIENARNCTENLLLLIAAVTVEQIRQQIHEETQFFCSAGVGNNKMMAKLVCARHKPRQQTLIPWFYVREILRLTPIGDVRGFGGKMGNRIQEMLNITVRKRKYSKFQVIFRIFIEKLSEMSEICNFRRFYTIFKYFSLNLEIWKYSKKNQFFLAKKKEILRFSQLKIRKFEFPVTFYPRNPLMGELLEVDISQLIE | not soluble |
| MKKYYVRCKDSKGENASLVIEALSPEHAKEQAYEVYEVGDIYNVSLGEGKSKNCLDRKYSPYIKNDNGKAITIFSLEHHHHHH | not soluble |
| MTNATIAPTTTAAPVTKSVDAPTADENTPLFSPSLISPDVLAVLPADYTIRPLCRSDYKRGYLDVLRVLTTVGDINEEQWNSRYEWIRARSDEYYLLVVCDGEGRIVGTGSLVVERKFIHSLGMVGHIEDIAVEKGQQGKKLGLRIIQALDYVAEKVGCYKTILDCSEANEGFYIKCGFKRAGLEMAHYY | soluble |
| MNEVKLSKRLEEVVREIPVGSTVADIGSDHAYLPCYTIINNIATKAVAGEVVDGPFRSAQATVAESGLQDKVDVRKGNGLAVIAPGEVDVITVAGMGGALIRDILESGKEKLEGVTRLILQPNIAAHHIREWFIENGWELIHEKIVKEDGKIYEILVGERGNVAAPYSENKQAELFMGPFLITEKSEAFVEKWEGELKNFQNILKQLERAADSEETKAKRGEVEAKMKMIGEVLS | not soluble |
| MDRFDAMRAFARVVETGSFTKAADTLHMSKTSVTQLVQQLEARLRVRLLNRTTRKVNATADGAAYYERVRQLLADLEDAETSLSGASATPGGRLRVDVPSPFASTILVPALPAFQARYPDILLHLGVSDREVDLIDENVDCVIRGGQIGNLSLAARHVGDLQLGVYASPGYLARAGVPAHPRELQDAQHRIIGFSWSRARRLFPCAMRRRADERIEVAGRHALLLDEGNAYLAAGLAAMGVIGVPTYMAEAHVERGALIRLFGDWRLDPMPLYIAYPQNRHVSAKLRVFIDWIVELMARHAPVTDAPPPHRSARMPGGPAAIPTDITGA | not soluble |
| MGSDKIHHHHHHMKYVLIQATDNGILRRAECGGAVTALFKYLLDKKLVDGVLALKRGEDVYDGIPTFITNSNELVETAGSLHCAPTNFGKLIAKYLADKKIAVPAKPCDAMAIRELAKLNQINLDNVYMIGLNCGGTISPITAMKMIELFYEVNPLDVVKEEIDKGKFIIELKNGEHKAVKIEELEEKGFGRRKNCQRCEIMIPRMADLACGNWGAEKGWTFVEICSERGRKLVEDAEKDGYIKIKQPSEKAIQVREKIESIMIKLAKKFQKKHLEEEYPSLEKWKKYWNRCIKCYGCRDNCPLCFCVECSLEKDYIEEKGKIPPNPLIFQGIRLSHISQSCINCGQCEDACPMDIPLAYIFHRMQLKIRDTLGYIPGVDNSLPPLFNIER | not soluble |
| MAHHHHHHMGKGAVHPNGSNFCRFLKYNIVDKMRTLVNTNLYDTPRWLEWSERAPPMEIYNISLKTKYNNNKYMDLVKFLLKKYPHLRFQDCYVEGNNNIKGYDYFRNDHIITQMATHQLYYMNRGYSKKEALEKTEKLFYDRRMDIEKQQKINMCLAIDEKVKPIYTNGYQYLYEKMADNEKAHLSIILKKLRNMKEKLQKKKKGANENEDKKNGVLT | not soluble |
| MATTAQKIKEVEDEMAKTQKNKATAKHLGMLKAKLAKLKRELITPTGGGGGGGLGFDVARTGIGTVGFIGFPSVGKSTLMTQLTGTRSEAAAYEFTTLTTVPGVLQYNGAKIQILDLPGIIEGAKDGRGRGKQVITVARTCNLIFIVLDVLKPMSHKRIIEEELEGFGIRLNKEPPNIVFKKKERGGINITNTVPLTHIDLDEIRAVCSEYRVNSADIAFRCDATIDDLIDVLEGNRVYIPALYVLNKIDSISIEELDLIDRIPNAVPICGNRGWNIDELKETMWDYLNLVRVYTRPRGLEPDYSEPVILRTGHSTVEDFCNNIHSSIKSQFKHAYVWGKSVPYPGMRVGLSHVLLDEDVVTIVKK | not soluble |

Source: the DeepSol protein solubility set
